The values below are quoted from earlier work in publication PMC4540119.

Like-named read-outs stand apart in the source and are kept apart here.

In series [1] the target is integrin α6β1 (Homo sapiens) (UniProt P23229).
Series [2] has the same target. The source holds these as a separate data set.

UniProt P23229, sequence (P23229 24-1050, chain 1 of 2): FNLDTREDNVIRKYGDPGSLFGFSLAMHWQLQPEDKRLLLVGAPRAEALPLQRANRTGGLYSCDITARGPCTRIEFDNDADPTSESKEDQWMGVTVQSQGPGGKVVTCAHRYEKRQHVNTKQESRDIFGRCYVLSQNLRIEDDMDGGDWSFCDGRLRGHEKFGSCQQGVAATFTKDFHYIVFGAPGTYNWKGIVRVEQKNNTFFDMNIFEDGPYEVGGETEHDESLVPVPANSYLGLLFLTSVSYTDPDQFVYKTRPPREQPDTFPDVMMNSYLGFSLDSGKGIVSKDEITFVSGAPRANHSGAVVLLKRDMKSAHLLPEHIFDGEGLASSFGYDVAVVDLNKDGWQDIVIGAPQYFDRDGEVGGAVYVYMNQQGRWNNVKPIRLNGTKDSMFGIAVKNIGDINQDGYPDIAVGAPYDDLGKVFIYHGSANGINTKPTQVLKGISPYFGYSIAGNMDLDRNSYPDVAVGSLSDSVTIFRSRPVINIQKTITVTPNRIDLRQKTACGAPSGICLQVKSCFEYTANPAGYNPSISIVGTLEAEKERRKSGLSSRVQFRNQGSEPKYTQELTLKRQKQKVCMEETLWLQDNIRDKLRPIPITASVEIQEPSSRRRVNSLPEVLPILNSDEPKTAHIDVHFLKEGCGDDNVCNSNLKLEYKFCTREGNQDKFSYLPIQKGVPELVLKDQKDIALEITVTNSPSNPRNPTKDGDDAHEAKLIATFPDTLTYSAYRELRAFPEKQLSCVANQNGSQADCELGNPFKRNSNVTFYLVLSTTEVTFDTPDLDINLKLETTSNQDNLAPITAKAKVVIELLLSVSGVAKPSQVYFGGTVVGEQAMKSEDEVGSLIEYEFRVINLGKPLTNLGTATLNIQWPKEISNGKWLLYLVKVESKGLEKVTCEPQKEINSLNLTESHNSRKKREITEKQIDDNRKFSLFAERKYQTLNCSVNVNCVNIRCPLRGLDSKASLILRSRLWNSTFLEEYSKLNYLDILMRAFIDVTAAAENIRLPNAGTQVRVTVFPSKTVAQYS
UniProt P23229, sequence (P05556 21-728, chain 2 of 2, further chain): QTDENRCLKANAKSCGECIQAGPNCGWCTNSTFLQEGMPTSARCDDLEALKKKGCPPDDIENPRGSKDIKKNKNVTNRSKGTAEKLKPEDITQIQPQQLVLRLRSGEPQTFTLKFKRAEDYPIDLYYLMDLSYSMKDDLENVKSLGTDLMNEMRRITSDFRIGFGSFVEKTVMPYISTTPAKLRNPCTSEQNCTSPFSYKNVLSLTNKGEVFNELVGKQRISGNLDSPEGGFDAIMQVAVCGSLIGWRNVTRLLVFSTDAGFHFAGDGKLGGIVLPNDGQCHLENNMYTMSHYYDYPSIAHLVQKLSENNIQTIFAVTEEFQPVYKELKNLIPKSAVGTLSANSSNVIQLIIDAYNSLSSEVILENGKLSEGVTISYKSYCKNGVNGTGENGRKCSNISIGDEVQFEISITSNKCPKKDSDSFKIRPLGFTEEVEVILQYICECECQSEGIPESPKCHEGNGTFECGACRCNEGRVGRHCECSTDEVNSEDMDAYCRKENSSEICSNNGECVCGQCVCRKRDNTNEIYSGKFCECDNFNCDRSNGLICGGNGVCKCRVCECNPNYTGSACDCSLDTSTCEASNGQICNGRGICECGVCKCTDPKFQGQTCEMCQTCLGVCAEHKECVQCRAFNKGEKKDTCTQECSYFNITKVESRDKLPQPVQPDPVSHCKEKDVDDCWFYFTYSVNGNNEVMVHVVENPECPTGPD

On to laminin-111 (from UniProt P25391), for which the Kd in series [1] is 9.5 nM. As to laminin-521 (from UniProt O15230), the Kd in series [2] is 0.72 nM.
